The source of these data is IntAct's records for PubMed 23446637.

B1: IQ calmodulin-binding motif-containing protein 1 (Homo sapiens), Q15051 (parent)
chain: MKPTGTDPRILSIAAEVAKSPEQNVPVILLKLKEIINITPLGSSELKKIKQDIYCYDLIQYCLLVLSQDYSRIQGGWTTISQLTQILSHCCVGLEPGEDAEEFYNELLPSAAENFLVLGRQLQTCFINAAKAEEKDELLHFFQIVTDSLFWLLGGHVELIQNVLQSDHFLHLLQADNVQIGSAVMMMLQNILQINSGDLLRIGRKALYSILDEVIFKLFSTPSPVIRSTATKLLLLMAESHQEILILLRQSTCYKGLRRLLSKQETGTEFSQELRQLVGLLSPMVYQEVEEQKLHQAACLIQAYWKGFQTRKRLKKLPSAVIALQRSFRSKRSKMLLEINRQKEEEDLKLQLQLQRQRAMRLSRELQLSMLEIVHPGQVEKHYREMEEKSALIIQKHWRGYRERKNFHQQRQSLIEYKAAVTLQRAALKFLAKCRKKKKLFAPWRGLQELTDARRVELKKRVDDYVRRHLGSPMSDVVSRELHAQAQERLQHYFMGRALEERAQQHREALIAQISTNVEQLMKAPSLKEAEGKEPELFLSRSRPVAAKAKQAHLTTLKHIQAPWWKKLGEESGDEIDVPKDELSIELENLFIGGTKPP

Variants of B1 are the subject of the assay. To be noted: with ce290_human CEP290, O15078.
ce290_human CEP290, O15078, sequence (O15078 whole entry): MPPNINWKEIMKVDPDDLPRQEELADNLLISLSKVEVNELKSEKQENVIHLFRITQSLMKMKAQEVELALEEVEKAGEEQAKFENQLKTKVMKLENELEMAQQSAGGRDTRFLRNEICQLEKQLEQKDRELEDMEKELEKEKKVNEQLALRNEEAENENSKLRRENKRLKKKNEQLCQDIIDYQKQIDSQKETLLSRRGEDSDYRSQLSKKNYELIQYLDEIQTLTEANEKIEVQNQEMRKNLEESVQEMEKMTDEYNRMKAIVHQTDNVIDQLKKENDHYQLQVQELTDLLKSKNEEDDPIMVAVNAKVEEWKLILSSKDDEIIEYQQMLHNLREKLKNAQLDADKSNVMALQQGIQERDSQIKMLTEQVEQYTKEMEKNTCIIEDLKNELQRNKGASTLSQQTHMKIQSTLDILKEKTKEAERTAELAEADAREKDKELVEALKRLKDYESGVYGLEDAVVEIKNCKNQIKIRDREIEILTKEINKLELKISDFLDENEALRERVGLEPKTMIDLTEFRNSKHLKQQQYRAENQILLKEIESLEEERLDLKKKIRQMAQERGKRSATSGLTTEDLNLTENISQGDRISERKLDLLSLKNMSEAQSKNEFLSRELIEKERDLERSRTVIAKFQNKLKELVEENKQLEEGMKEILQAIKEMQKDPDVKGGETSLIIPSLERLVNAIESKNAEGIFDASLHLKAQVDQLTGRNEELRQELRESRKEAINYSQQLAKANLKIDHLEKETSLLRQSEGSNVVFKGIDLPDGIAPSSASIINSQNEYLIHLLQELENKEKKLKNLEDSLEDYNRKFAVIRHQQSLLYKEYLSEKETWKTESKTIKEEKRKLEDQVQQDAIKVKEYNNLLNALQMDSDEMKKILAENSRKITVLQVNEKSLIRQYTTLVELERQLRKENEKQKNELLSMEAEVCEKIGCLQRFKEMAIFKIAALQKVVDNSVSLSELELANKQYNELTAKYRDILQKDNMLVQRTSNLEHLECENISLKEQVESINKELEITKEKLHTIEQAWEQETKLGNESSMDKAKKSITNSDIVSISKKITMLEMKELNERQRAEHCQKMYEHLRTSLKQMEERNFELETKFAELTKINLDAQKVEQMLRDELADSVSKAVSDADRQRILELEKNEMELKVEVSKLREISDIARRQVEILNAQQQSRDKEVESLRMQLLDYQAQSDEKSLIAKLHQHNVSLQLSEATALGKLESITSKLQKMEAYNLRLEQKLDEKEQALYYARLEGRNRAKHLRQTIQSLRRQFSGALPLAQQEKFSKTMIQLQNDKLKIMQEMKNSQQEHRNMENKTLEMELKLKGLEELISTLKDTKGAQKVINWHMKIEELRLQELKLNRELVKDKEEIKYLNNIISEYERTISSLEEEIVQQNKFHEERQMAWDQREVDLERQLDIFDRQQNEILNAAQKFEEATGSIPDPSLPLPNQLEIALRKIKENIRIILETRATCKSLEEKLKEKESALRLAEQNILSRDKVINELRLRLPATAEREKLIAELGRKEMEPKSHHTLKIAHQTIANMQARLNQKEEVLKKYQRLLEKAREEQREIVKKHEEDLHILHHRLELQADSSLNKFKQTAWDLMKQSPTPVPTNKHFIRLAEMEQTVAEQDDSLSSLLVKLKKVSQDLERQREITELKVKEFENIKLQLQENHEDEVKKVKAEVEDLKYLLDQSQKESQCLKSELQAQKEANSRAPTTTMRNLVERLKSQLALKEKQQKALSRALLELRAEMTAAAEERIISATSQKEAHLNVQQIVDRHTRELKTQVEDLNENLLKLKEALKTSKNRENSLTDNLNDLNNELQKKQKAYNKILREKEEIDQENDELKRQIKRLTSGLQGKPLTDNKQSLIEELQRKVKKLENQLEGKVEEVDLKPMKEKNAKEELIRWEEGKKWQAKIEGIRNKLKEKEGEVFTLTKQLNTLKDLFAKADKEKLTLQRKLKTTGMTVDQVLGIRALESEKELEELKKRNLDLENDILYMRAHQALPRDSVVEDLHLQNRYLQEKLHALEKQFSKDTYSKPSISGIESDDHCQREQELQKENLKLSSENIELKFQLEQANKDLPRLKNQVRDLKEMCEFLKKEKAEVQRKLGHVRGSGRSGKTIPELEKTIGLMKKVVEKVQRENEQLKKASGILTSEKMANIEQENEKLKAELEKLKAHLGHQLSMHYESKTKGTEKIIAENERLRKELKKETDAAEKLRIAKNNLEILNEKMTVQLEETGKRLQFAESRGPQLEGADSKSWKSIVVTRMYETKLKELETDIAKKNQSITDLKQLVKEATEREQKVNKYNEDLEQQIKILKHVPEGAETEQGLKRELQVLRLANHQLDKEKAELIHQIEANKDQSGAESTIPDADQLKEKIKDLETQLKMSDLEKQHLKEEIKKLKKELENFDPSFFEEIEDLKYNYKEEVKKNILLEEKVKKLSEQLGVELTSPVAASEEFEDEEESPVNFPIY
Regarding MKPTGTDPRILSIAAEVAKSPEQNVPVILLKLKEIINITPLGSSELKKIKQDIYCYDLIQYCLLVLSQDYSRIQGGWTTISQLTQILSHCCVGLEPGEDAEEFYNELLPSAAENFLVLGRQLQTCFINAAKAEEKDELLHFFQIVTDSLFWLLGGHVELIQNVLQSDHFLHLLQADNVQIGSAVMMMLQNILQINSGDLLRIGRKALYSILDEVIFKLFSTPSPVIRSTATKLLLLMAESHQEILILLRQSTCYKGLRRLLSKQETGTEFSQELRQLVGLLSPMVYQEVEEQKLHQAACLIQAYWKGFQTRKRLKKLPSAVIALQRSFRSKRSKMLLEINRQKEEEDLKLQLQLQRQRAMRLSRELQLSMLEIVHPGQVEKHYREMEEKSALIIQKHWRGYRERKNFHQQRQSLIEYKAAVTLQRAALKFLAKCRKKKKLFAPWRGLQELTDARRVELKKRVDDYVRRHLGSPMSDVVSRELHAQAQERLQHYFMGRALEERAQQHREALIAQISTNVEQLMKAPSLKEAEGKEPELFLSRSRPVAAKKKQAHLTTLKHIQAPWWKKLGEESGDEIDVPKDELSIELENLFIGGTKPP [A549K], the “effect of a mutation on the interaction” value was “disrupting interaction”.
